Reference: patent EP4592315A1 (Biotheus Inc., dated 2024)
Values belong to the binder of their own block, whether it stands above or below them.

Columns and labels:
human FcγRIIb = biological target: T1, human FcγRIIb (human, UniProt P31994 43-310); test: flow cytometry on CHOS-hCD32b cells (overexpressing human FcγRIIb), anti-human IgG-Fc PE
T1 construct: whole, on cells; also called hCD32b; CD32b
T1 sequence (looked up): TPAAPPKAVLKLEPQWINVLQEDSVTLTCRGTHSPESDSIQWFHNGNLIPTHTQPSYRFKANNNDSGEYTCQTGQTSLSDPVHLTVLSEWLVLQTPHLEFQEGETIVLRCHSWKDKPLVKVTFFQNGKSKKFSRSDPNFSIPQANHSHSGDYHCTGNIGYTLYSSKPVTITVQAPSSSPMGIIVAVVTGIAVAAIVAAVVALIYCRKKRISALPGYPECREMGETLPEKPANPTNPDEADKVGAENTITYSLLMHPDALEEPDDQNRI

human 4-1BB = biological target: T2, human 4-1BB (human, UniProt Q07011 24-255); test: flow cytometry on CHOS-h4-1BB cells (overexpressing human 4-1BB), anti-human IgG-Fc PE
T2 construct: whole, on cells; also called h4-1BB; CD137
T2 sequence (Q07011 24-255): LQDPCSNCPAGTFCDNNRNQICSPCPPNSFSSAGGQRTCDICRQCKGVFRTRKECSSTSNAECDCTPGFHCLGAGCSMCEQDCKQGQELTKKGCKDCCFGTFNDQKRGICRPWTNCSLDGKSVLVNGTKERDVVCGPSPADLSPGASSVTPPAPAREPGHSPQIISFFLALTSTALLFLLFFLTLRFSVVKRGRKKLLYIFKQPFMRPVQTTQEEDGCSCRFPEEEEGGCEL

- EC50 (human FcγRIIb): 1.06 nM
- EC50 (human 4-1BB): 6.99 nM
B1: HER2xHER2x4-1BB-1 (bispecific antibody, human IgG1, kappa)
heavy 1: not shown
light 1: DIQMTQSPSSLSASVGDRVTITCRASQSVQGAVAWYQQKPGKAPKLLIYSASFLYSGVPSRFSGSRSGTDFTLTISSLQPEDFATYYCQQHSTTPPTFGQGTKVEIKRTVAAPSVFIFPPSDEQLKSGRASVVCLLNNFYPREAKVQWKVDNALQSGNSQESVTEQDSKDSTYSLSSRLQLSKADYEKHKVYACEVTHQGLSSPVTKSFNRGEC
heavy 2: not shown
light 2: DIQMTQSPSSLSASVGDRVTITCKASQDVSIGVAWYQQKPGKAPKLLIYSASYRYTGVPSRFSGSGSGTDFTLTISSLQPEDFATYYCQQYYIYPYTFGQGTKVEIKRTVAAPSVFIFPPSDEELKSGTASVQCLLNNFYPREAKVQWKVDNALQSGNSQESVTEQDSKDSTYSLSSELTLSKADYEKHKVYACEVTHQGLSSPVTKSFNRGEC
notes: also called HER2×HER2×4-1BB-1; HER2 × HER2 × 4-1BB-1

- EC50 (human 4-1BB): 0.316 nM
B2: Urelumab (antibody, human IgG4 S228P, kappa)
heavy: not shown
light: not shown
notes: also called Urelumab Analog; copies: 2 + 2
